# B1: UBN1(92–175) [human] / H3.3/H4 [human | X. laevis] (parent complex)
# chain 1: NDEEKERHKVEALARKFEEKYGGKKRRKDRIQDLIDMGYGYDESDSFIDNSEAYDELVPASLTTKYGGFYINSGTLQFRQASES
# chain 2: not shown
# chain 3: not shown
# Variants of: B1
# Test: fluorescence polarization competition binding; 10 nM FITC-UBN1(127–148), 6.5 μM H3.3/H4; 20 mM HEPES pH 7.5, 750 mM NaCl, 1 mM TCEP; parent: 1.66e+04 nM
row,IC50,Variant
1,19.6 µM,chain 1 D33A
2,21.1 µM,chain 1 D36A
3,22.9 µM,chain 1 E56A
4,19.6 µM,chain 1 L57A
5,22.6 µM,chain 1 M37A
6,13.8 µM,chain 1 Q32A
7,16.9 µM,chain 1 I31A
8,15.1 µM,chain 1 L34A
9,19.9 µM,chain 1 G40A
10,16.3 µM,chain 1 A53I
11,29.3 µM,chain 1 E52A
12,16.4 µM,chain 1 Y54A
13,67.8 µM,chain 1 G38A
14,13.8 µM,chain 1 I35A
15,14.4 µM,chain 1 Y39A
16,16.2 µM,chain 1 S46A
17,23 µM,chain 1 D55A

# — paper PMC4510971 (2015)
